Measurements as given in US8586570B2, “Sox-based kinase sensor” (Massachusetts Institute of Technology, priority 2006, dated 2013).

Biological target: PKCα (Homo sapiens, UniProt P17252)
Assay: Kinetic parameters of the peptides with PKCα (continuous fluorescence assay)
Type: biochemical
Excerpt: To solve for enzyme kinetic parameters for this reaction, determination of the initial rate of product formation from the increase in fluorescence intensity is necessary. With this sensor, a correction for the decrease in fluorescence intensity due to the starting material being consumed is needed to determine the rate of product formation from the initial slope. The fluorescence intensity at any given point can be determined from the following equation: I(t)=fSs(t)+fPP(t) (1) where I(t) is the fluorescence intensity, S(t) is the amount of substrate in μM, P(t) is the amount of product in μM, fS is the fluorescence intensity per μM of substrate, and fP is fluorescence intensity per μM of product. The amount of substrate and product at any given point are related by: S(t)+P(t)=S0 (2) where S0 is the initial amount of substrate. Substitution of (2) into (1) followed by rearrangement, yields:
[formula] The initial slope of the reaction, dI(t)/dt, was measured within the first 5% of substrate turnover. The constants fP and fS were calculated from the slope of a line of fluorescence intensity versus concentration of P and S, respectively. A linear fit of a Hanes plot ([S]/V vs. […]) was used to find Km and Vmax.
For in vitro applications, the concentration of kinase can range from about 0.5 nM to about 1 μM, typically not more than about 500 nM, and preferably not more than about 250 nM. The concentrations of sensor can vary, but usually ranges between about 0.01 μM to 0.1 mM. Adenosine 5′-triphosphate (ATP) is the preferred source of phosphate, in stock solutions of about 10-100 mM. Because most kinases have Km values for ATP in the range of about 10-150 μM, saturating concentrations of ATP are used to arrive at values of Km and Vmax for the substrates. For in vivo applications, when the sensor is internalized into a cell, sufficient kinases, Mg^2+ and phosphate sources exist in the cytosol. For in vivo sensing, a cellular internalization sequence can be included in the sensor design. Suitable cellular internalization sequences include Penetratins, HIV-Tat domains and poly-arginine sequences (Lindgren, M. et al. Trends Pharmacol. Sci. 2000, 21, 99-103; Wadia, J. S. et al. Curr Opin. Biotech. 2002, 13, 52-56; Carrigan, C. N. Analyt. Biochem. 2005, 341, 290-298).
For applications in which the kinase is dependent on cofactors, a source of cofactor is also included in the sample. For example, for PKC, sources of Ca^2+, phospholipid and diacylglycerol are needed.
Fluorescence experiments were performed on a Fluoromax 3 from Jobin Yvon. 5 nm emission and excitation slit widths were used. For all experiments, an excitation wavelength of 360 nm was used. Enzyme assays were performed by monitoring emission at 485 nm.

Ac-RRR-C(Sox)-ASFRRKA-CONH2 [PKCα-S10(P10), Sox chemosensor with extended recognition domain for PKCα]
selectivity for PKCα (as determined by kinetic parameters, compared with PKCα-S1): much more selective for PKCα | Km (with PKCα): 0.12 ± 0.018 µM | Vmax (with PKCα): 2.2 ± 0.25 µmol/min/mg
